Measured values reported in the Immune Epitope Database (IEDB).

Assays:
[1] = biological target: HLA-A*02:10; test: IEDB peptide-MHC binding, purified MHC/direct/fluorescence; filed as Kd, often an IC50 or EC50 that approximates it; ≥ and ≤ were set here for values at or beyond the usual limits of such assays; details: source organism: Escherichia coli O157:H7 str. EC869
[2] = biological target: HLA-A*02:11; test: as above; details: source organism: Escherichia coli O157:H7 str. EC869
[3] = biological target: HLA-A*02:50; test: as above; details: source organism: Escherichia coli O157:H7 str. EC869
[4] = biological target: HLA-A*23:01; test: as above; details: source organism: Escherichia coli O157:H7 str. EC869
[5] = biological target: HLA-A*24:03; test: as above; details: source organism: Escherichia coli O157:H7 str. EC869
[6] = biological target: HLA-A*29:02; test: as above; details: source organism: Escherichia coli O157:H7 str. EC869
[7] = biological target: HLA-A*30:01; test: as above; details: source organism: Escherichia coli O157:H7 str. EC869
[8] = biological target: HLA-B*07:02; test: as above; details: source organism: Escherichia coli O157:H7
[9] = biological target: HLA-B*15:01; test: as above; details: source organism: Escherichia coli O157:H7 str. EC869
[10] = biological target: HLA-B*18:01; test: as above; details: source organism: Escherichia coli O157:H7 str. EC869
[11] = biological target: HLA-B*40:01; test: as above; details: source organism: Escherichia coli O157:H7 str. EC869
[12] = biological target: HLA-B*44:02; test: as above; details: source organism: Escherichia coli O157:H7 str. EC869
[13] = biological target: HLA-B*51:01; test: as above; details: source organism: Escherichia coli O157:H7
[14] = biological target: HLA-B*57:01; test: as above; details: source organism: Escherichia coli O157:H7 str. EC869
[15] = biological target: HLA-B*58:01; test: as above; details: source organism: Escherichia coli O157:H7 str. EC869
[16] = biological target: HLA-B*46:01; test: IEDB peptide-MHC binding, purified MHC/competitive/fluorescence; filed as Kd, often an IC50 or EC50 that approximates it; ≥ and ≤ were set here for values at or beyond the usual limits of such assays
[17] = biological target: HLA-A*02:01; test: as above; details: source organism: Plesiomonas shigelloides
[18] = biological target: HLA-A*02:03; test: as above; details: source organism: Plesiomonas shigelloides
[19] = biological target: HLA-A*02:12; test: as above; details: source organism: Plesiomonas shigelloides
[20] = biological target: HLA-A*02:16; test: as above; details: source organism: Plesiomonas shigelloides
[21] = biological target: HLA-A*02:19; test: as above; details: source organism: Plesiomonas shigelloides
[22] = biological target: HLA-A*23:01; test: as above; details: source organism: Plesiomonas shigelloides
[23] = biological target: HLA-A*24:03; test: as above; details: source organism: Plesiomonas shigelloides
[24] = biological target: HLA-A*26:01; test: as above; details: source organism: Plesiomonas shigelloides
[25] = biological target: HLA-A*29:02; test: as above; details: source organism: Plesiomonas shigelloides
[26] = biological target: HLA-A*68:02; test: as above; details: source organism: Plesiomonas shigelloides
[27] = biological target: HLA-A*69:01; test: as above; details: source organism: Plesiomonas shigelloides
[28] = biological target: HLA-A*80:01; test: as above; details: source organism: Plesiomonas shigelloides
[29] = biological target: HLA-B*27:03; test: as above; details: source organism: Plesiomonas shigelloides
[30] = biological target: HLA-B*39:01; test: as above; details: source organism: Plesiomonas shigelloides
[31] = biological target: HLA-B*51:01; test: as above; details: source organism: Plesiomonas shigelloides
[32] = biological target: HLA-B*57:01; test: as above; details: source organism: Plesiomonas shigelloides
[33] = biological target: HLA-A*01:01; test: IEDB peptide-MHC binding, purified MHC/competitive/fluorescence; ≥ and ≤ were set here for values at or beyond the usual limits of such assays; details: source organism: Homo sapiens
[34] = biological target: HLA-A*02:01; test: as above; details: source organism: Homo sapiens
[35] = biological target: HLA-A*03:01; test: as above; details: source organism: Homo sapiens
[36] = biological target: HLA-A*11:01; test: as above; details: source organism: Homo sapiens
[37] = biological target: HLA-A*24:02; test: as above; details: source organism: Homo sapiens
[38] = biological target: HLA-A*25:01; test: as above; details: source organism: Homo sapiens
[39] = biological target: HLA-A*29:02; test: as above; details: source organism: Homo sapiens
[40] = biological target: HLA-A*31:01; test: as above; details: source organism: Homo sapiens
[41] = biological target: HLA-A*68:02; test: as above; details: source organism: Homo sapiens
[42] = biological target: HLA-B*07:02; test: as above; details: source organism: Homo sapiens
[43] = biological target: HLA-B*08:01; test: as above; details: source organism: Homo sapiens
[44] = biological target: HLA-B*14:02; test: as above; details: source organism: Homo sapiens
[45] = biological target: HLA-B*18:01; test: as above; details: source organism: Homo sapiens
[46] = biological target: HLA-B*35:01; test: as above; details: source organism: Homo sapiens
[47] = biological target: HLA-B*37:01; test: as above; details: source organism: Homo sapiens
[48] = biological target: HLA-B*40:02; test: as above; details: source organism: Homo sapiens
[49] = biological target: HLA-B*44:03; test: as above; details: source organism: Homo sapiens
[50] = biological target: HLA-B*51:01; test: as above; details: source organism: Homo sapiens
[51] = biological target: HLA-B*53:01; test: as above; details: source organism: Homo sapiens
[52] = biological target: HLA-B*58:01; test: as above; details: source organism: Homo sapiens

ESMMGSTAM
Kd [1]: ≥ 20 µM | Kd [2]: ≥ 20 µM | Kd [3]: ≥ 20 µM | Kd [4]: ≥ 20 µM | Kd [5]: ≥ 20 µM | Kd [6]: ≥ 20 µM | Kd [7]: ≥ 20 µM | Kd [8]: 316 nM | Kd [9]: 31 nM | Kd [10]: ≥ 20 µM | Kd [11]: ≥ 20 µM | Kd [12]: ≥ 20 µM | Kd [13]: ≥ 20 µM | Kd [14]: ≥ 20 µM | Kd [15]: ≥ 20 µM | Kd ([16]; source organism: Escherichia coli str. K-12 substr. MG1655): 3000 nM

LLFRMILNY
Kd [17]: ≥ 20 µM | Kd [18]: ≥ 20 µM | Kd [19]: ≥ 20 µM | Kd [20]: ≥ 20 µM | Kd [21]: ≥ 20 µM | Kd [22]: ≥ 20 µM | Kd [23]: ≥ 20 µM | Kd [24]: ≥ 20 µM | Kd [25]: 5 nM | Kd [26]: ≥ 20 µM | Kd [27]: ≥ 20 µM | Kd [28]: 25.9 nM | Kd [29]: ≥ 20 µM | Kd [30]: ≥ 20 µM | Kd ([16]; source organism: Plesiomonas shigelloides): ≥ 20000 nM | Kd [31]: ≥ 20 µM | Kd [32]: ≥ 20 µM

YFYYNAFHWAI
IC50 [33]: ≥ 20 µM | IC50 [34]: 2910 nM | IC50 [35]: ≥ 20 µM | IC50 [36]: ≥ 20 µM | IC50 [37]: 1130 nM | IC50 [38]: ≥ 20 µM | IC50 [39]: 661 nM | IC50 [40]: ≥ 20 µM | IC50 [41]: 3.62 µM | IC50 [42]: ≥ 20 µM | IC50 [43]: ≥ 20 µM | IC50 [44]: 15.1 µM | IC50 [45]: ≥ 20 µM | IC50 [46]: ≥ 20 µM | IC50 [47]: ≥ 20 µM | IC50 [48]: ≥ 20 µM | IC50 [49]: ≥ 20 µM | IC50 [50]: ≥ 20 µM | IC50 [51]: ≥ 20 µM | IC50 [52]: ≥ 20 µM
